The values below come from the domain aggregation screens of Martell et al. (2025).

A short description of the series: soluble fraction after stress (log2 fold change); higher = more stays soluble; pooled small domains, quantitative proteomics. The conditions noted are these: stress: pH 4. In short, it runs like this:
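How much of each domain stays soluble after acid stress, expressed as a fold change, is used to gauge aggregation propensity. Pooled custom libraries of small domains underwent pH 4 stress before high-throughput quantitative proteomics. A higher log2 value means more of the domain stayed soluble.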

For “HMTVTKYGKKILEIVSSSRSHMTAEEIFDALRQTYPTVVLATVYNNLNRLWQDDLIRKVSVEGMPDRYD”, the “soluble fraction (log2)” value is -0.0435. For “HMTVVPNIVNQPEAAGTNLLISSNLKPGNRAVQYSDTVKAGDIISQSPEPGAQATLGGKVDYVISQGPAPT” the value was 0.22. As to “HMTWIAEIELRLMGNGAVTGAKIVKSTDLKDVDAAIYRAALEASPYPAPESGIGGRFTIKLKY”, the “soluble fraction (log2)” value came out at 0.015. The figure for “HMTYLIKFDENGRRSDTYVAEEKTQEQVTELLEKGFVLITEEDYQLLVGNVDGKEYIRNADGTYSEYT” is -0.894; for “HMTYMWTTDGVNLRSEPNTDSAVVTVLGVGTQVRMIGEEDGWVKVSFNDQEGYIRADFLTTE” it is -0.476; for “HMTYSAFITARNKRIAEEYSVLLDSLNISNNVIYRLGSWVVEVNVSDHSRAIDEIYSYERSGRIDKV” it is -0.534. For “HMTYYEGYYRKNQKGFGFVIVDGRDEDIYIDAKNMNGALNNDLVVVEELKGQNGKKTEGRVVKVLKKE” the value was -0.284; for “HMVADLSGVGDKDIIVDQFIYHEVLPKETIYSIVKSFNVTSEDLNKNNPFLRANGLRIGQVIRIPLKI”, -0.224; for “HMVAEPTYGRTTDVLNIRSGPSTDDERIGQLSRGAVVTILEEKDGWYRLQRGYISADYVTQISAEEASNS”, -0.546.

Turning to “HMVAEPVYGKVTEGPLNVRSAPSTDSEKVDSFSTGKVLTILETLDGWYKVEEGYVSADYVTIIDAAEAASS”, the “soluble fraction (log2)” value was -0.538.

Consider “HMVAGHLSEKKGYYYAVLNYKDYTGKRKSKWVSTGLPVKGNKRRAEKILADIKRDFVPEEPKR”, for which the “soluble fraction (log2)” value is -0.0527. In the case of “HMVAGQDPVKRQQILDGAKRVFLGVGFDAASMNDITREAGVSKGTIYVYFGSKEELFGALIDR”, the “soluble fraction (log2)” value was -0.807. On to “HMVAMLDASYRGVMQTISTLLAQGNTERAYDEAVNARGQMSKQQWNNLANLIWERTGQKIDSGVSYK”, for which the “soluble fraction (log2)” value was -0.00781. Regarding “HMVDEAQSLERNVLLTVLSRIGRDSRVVLTHDIAQRDNLRVGRHDGVVAVVDRLKGHPLFAHVTL”, the “soluble fraction (log2)” value was -0.0346. The figure for “HMVDERMVTYINSLDKGNTPFLNELEKEALANYVPIIRREMQSFLKVLLQIKAPLRILEVGTAVGFSTILM” is -0.354. The figure for “HMVDGAHKQQAAVQALTPALKVLAAAPEGKKGQAIQALRAVLKQHGRWLDDATAQQVHEQLLAAGDAQGWQ” is 0.331. The figure for “HMVDIGQSIRVELIREGKDSHQAVGYLRDGSMVVVNHGRKLIGSTVEVEITSIVPSSAGKVIFAEYLE” is -1.05.

For “HMVDIQTGQKVRIHTSQFAGKIGNITALNVKSAELPNGIRTATASILMQSNENVMLPVSNFDIIE”, the “soluble fraction (log2)” value was -0.044. In the case of “HMVDIVLDILKIVAEKQPGNQFSQSILMQYQERGGLSKKQLEGLYGKAKRIPEIPQNKLATLEAIILR”, the “soluble fraction (log2)” value is -0.428. For “HMVDKNDLTAIDGIGPFLEKKLNDVGVFTYADIAGWDAAKIEEITQQISFFEGRIEKDDWVGQAQKLIDDQ” the value was -0.704; for “HMVDKSYIHNQQVASDTWTVQHNLGKYPAVSVADTGNNEVYGDVRHINENTVELKFSHPFSGVAFF”, -0.0737; for “HMVDKTMYDRYAVDDYVRVIDGPLVGTEGRIIELDRETGNVKIEAVFFGRVTTADINFALIEKVD”, -1.33.

Consider “HMVDLDIENYELEDILNLFRLQYNFVEADLKRAYRMALKLHPDKSGLDGEYFRFYMKAYKIVENIFNFRNR”, for which the “soluble fraction (log2)” value was -1.38.

For “HMVDSVIGSVGRVTVDIDNVEALGQVKLGGMEWSARSTSGDPIPAGTEVRVDRVEGVKVFVTPV”, the “soluble fraction (log2)” value was -0.203. “HMVDVEMLTTVSDHIEAKLLQGILENHGIPSYSVDEESGEYMRVYMGYSIFGEKIYVRASDLLAAQGYL”: the “soluble fraction (log2)” value was -1.93. Turning to “HMVDWTFPVLVKDVVMMGRYGHMGFLRIPGKKDFESVDNALAKVGMVEYAKQQIGELSGGQR”, the “soluble fraction (log2)” value was -0.0255. The figure for “HMVDYSMEDSVWNNKKEHVNEWFDANPEHEGRRVIVDGLFAIGDAQPDLRKRHWSSISVVFADLDNSPIG” is -1.01. For “HMVEDPADNQKAADAVIKKISEIGEVTESSENLIKEARASYDALTDNQKELVTNYDVLVQAEAQLENIKD” the value was -0.703; for “HMVEEVDYGTFMRMIEEKNIGKVEVRAGEIVFTDKDEKQIYKTGAMEDATLTQRLYESGAEFSKDV”, -0.507.

As for “HMVEGVSLVEIYVDENSKYNGKLLSEIPKKENTLVIMIQRGEQVIIPHGNIRLESGDMLVVSKTEI”, the “soluble fraction (log2)” value was -1.38. For “HMVEKNALSEEIEGYVNKYGKDRSSLMPVLQAIQRKHSYINDFAQQEVARLLDIHPVEVFSVISFYSFLH” the value was -1; for “HMVEKRLFPQISDAGKRLDLFLAGALAISRTMVVKIIKDGGVLVNGKAAKASYRLAGDEELLVSYEEP”, -0.243; for “HMVEMPEVGVKVRIEVESHNGSTNFEGIVLHPASKGHLTLKLINGYNASYLIEEIRNLEIIDSS”, -0.763.

With “HMVENATPEEREALNDIAMEAMGMVKDGKPTSAREFVQSQNLDNDQKILLWSLLDAPTRSALKTAEK”, the “soluble fraction (log2)” value was 0.299. For “HMVEPIKAPMPGMVLKILVEPGQQIEKGQGVLILEAMKMENVLKSSAAATVKSIKVSEKSAVEKGAILVEL” the value was -0.261; for “HMVEQVEISILPGEYSDTISQKLLDAGLIDDKAAFSKYINDTNVDNLIQPGTFTVPKGASYEEVAKILT”, -1.35. For the sequence “HMVERRVRFTVAPGNAGLRLDLFLTAREIGLSRTQVGRAVDEGQIQVNGRPGRAGRKLKTGDVVAIVLPA”, the “soluble fraction (log2)” value is -0.0969.

For “HMVESLTDRELQILSLAAKGYTNKAIAVQLGISDRTVQNHLANTFQKLNAESRTEAVMRAVSLGLISA”, the “soluble fraction (log2)” value is -0.422. Take “HMVETVQVVGAGQDIMPGSRINYSSLHYITVPRSYFHEDMFAKNNLVVGRIARAYVAKGEPLLAASLMPK”: the “soluble fraction (log2)” value came to 0.17.

For “HMVEVPYSEFLKELDAGNVKDVYVSNGESQIQFTKKDQKQWNLSYKTGPIPGDDLVKRLQNADVENFT”, the “soluble fraction (log2)” value was -0.282. As to “HMVEVTTDEITRPGAMVSGSVTFSDGVKAIWLIDEYGRPGLEPETPGYQPSESDLSEFEKHLRALLQ”, the “soluble fraction (log2)” value was -0.648. For “HMVEVVDAEKLEERLSKVFSAAVLLEIYNENPAHGKEYAYLFTARKNAVEEMIENGQMKRETWEAK” the value was -1.91; for “HMVFSKEELLFNSDSLLSLYPNDNKLLETILSEKIDHAVKNNDMSMYKEILVIDPKNPLANYHLLM”, 0.17; for “HMVFTEEERAEYREKMLDAGFDLLKQYGMTHMSVAKITEAAGIGVSTFYNFFSSKEEYVYEVLQYRRRK”, -0.392.

For “HMVGIVQKTFEPTGIAAEELMKTLKSDKSLDFGNVQILATPKSSTSRQVVVVSGRANDVDRVMMVLSNLDS”, the “soluble fraction (log2)” value was found to be 0.015. On to “HMVGKIVVPHLEGKPAEMARDILARDGFKSVHEEVLPSAEFGAGRVVRTEPHAGTNVAKTDPVTIFVSVGL”, for which the “soluble fraction (log2)” value is -0.0761. For “HMVGLTDLQRNVLVQIARGKSRQLISRTLKVTPAEISAALKVAQRRYRVASSTEVIVQALYDKTLSFHEIM” the value was 0.105; for “HMVIIPNILNKYKGLAFRQLEQVGLKIGDTIYEPNIQRDAVLRMQINGRSVQPGDQVMRFSVVDLVIG”, -1.14. For the sequence “HMVINKRELNVLSIYSRGSEKRAIILFPTGQTKLVKVGDTLNGGRVAAIGTTEIRYIKGGNNLVLKIPQ”, the “soluble fraction (log2)” value is ≥ 0.43. On to “HMVINVNEIIRRIKELKTFKTDRQVADFLGVSKATVSNWMARNSIDFPLLINKLDGVDLTWLLTGRGTPE”, for which the “soluble fraction (log2)” value is -0.121.

For “HMVIPATPTARRAKIAGLLADRSVRSQGELLTLLADAGIEVTQATLSRDLEALGAVKVRDGRGLVYAVPG”, the “soluble fraction (log2)” value is 0.365. The figure for “HMVIQRQIPPLVTRMLDGLEQFIQLDMPFDLDTRLGNIEAVRANMDRSDVTSAEAYRQVLELYSIELQ” is -0.0525. Turning to “HMVISLREINLIGVYGRPNARRALVRLSNGRYVRVEVGSDLDGGKVTAIGDEALNFVKRGRTYAIQLPA”, the “soluble fraction (log2)” value was -0.324. The figure for “HMVITPESVKEQVLAIISKSPAQGFNYKQISKRLNINDPSERKMVSDILRELSESGTIEEINKGKYRAKV” is -0.055; for “HMVKDYIQVTVNKEPVILKGKKDYIFIDIFNYIEFDLTIPKGSLYLLLNGKNAGYHDKLLDGDVIELGW” it is -1.63; for “HMVKLDDLTGQDKASAEAAISNLGLKYSEQQEYSDEIEEGKVTRTDPGAGSTSLKAGDTVTVYISRGPE” it is -0.348. On to “HMVKLSATVKELLDFVIAKKTVTSSNVSKHFDISAQNASGRLKKLHATGLVLGQKEVAESGGLEFVYRS”, for which the “soluble fraction (log2)” value was -0.208. Take “HMVKLSDGIVEHIKSLIMAGRLKPGDKLPPEREFAATLGVSRTALREAVRTLSLMGLLDARQGEGTFVSG”: the “soluble fraction (log2)” value amounted to 0.313.

Take “HMVKPQANTIYKEYIKYRANLQNKNEFLSFSEYAKQKHNLEQMSEIMVDANLKEEMLETLKEMS”: the “soluble fraction (log2)” value was 0.0548. For “HMVKSDLVGHRFILVEDVTPKLTPKYHYSGINWKLITTDNLVAGTRVEVIQVDVGKFHIKAIK” the value was -0.82. The figure for “HMVKSIDEIYNEAVKSLANEDYDAAKKLFNYLINNFSDPDKFPLSLFWLAEIEFSSSNFDASKNYYMQ” is -0.225. The figure for “HMVKSSVTEVISMINALPVTVKPEDKADIISARMAYDTLTEDEKALVTNYEILTAAETRFNELIATT” is -0.101; for “HMVKTIINGEEKDFDAQDFQTFGDFLKKVIPEGQILKSLKINSKDVPIAFIDELKSATVDENITIEMELA” it is 0.315. For “HMVLAEPLSERELDILRLLAAGDSNKEIAAVLYITEGTVKNHVTNILGKLDARDRTQAALRARELGL”, the “soluble fraction (log2)” value is -0.373. On to “HMVLGDQTFQSASAPKVFFGGDAAYGPKNIITAVAHGHDAAVSIDRFLHGEDVSKRPGPQVNLVS”, for which the “soluble fraction (log2)” value stood at 0.207. For “HMVLRPDDVEDSLWREWVSHRKAKRAAVTEGVLKTFRQEATKASFTLADAMRKSIDRGWTGFEAEWVARET” the value was -0.325; for “HMVLSPAQVRRALMVSGLFTEARVARQLGVPMDLKQILRIILRNTPPQSAMARELESAIDEIESRNAMRD”, -0.844. In the case of “HMVLSTRERMSNILATLKGGHFVNFSDLFTPEEGRLGVVVTFLAMLELIKESLLDIVQHEVLGPIHVKARV”, the “soluble fraction (log2)” value came to 0.0323.
